Results as given in patent publication US20050282239A1, “Cell-permeable enzyme activation reporter that can be loaded in a high throughput and gentle manner” (priority 2003, published 2005).
Ends that are not written are not given here.

Legend:
RBL cells = test: CACE single-cell analysis: loading and release of cargo; assay type: cell-based, rat; settings: 750 nM extracellular
PKB [1] = biological target: T1, PKB (Homo sapiens, UniProt P31749); test: CACE: intracellular phosphorylation of PKB substrate in HT1080/PTEN cells; assay type: cell-based; settings: 1 μM extracellular
T1 construct: endogenous in cells; host or cells: HT1080 cells; HT1080/PTEN cells (engineered to over-express wild type PTEN, PKB itself not transfected)
T1 sequence (P31749 whole entry): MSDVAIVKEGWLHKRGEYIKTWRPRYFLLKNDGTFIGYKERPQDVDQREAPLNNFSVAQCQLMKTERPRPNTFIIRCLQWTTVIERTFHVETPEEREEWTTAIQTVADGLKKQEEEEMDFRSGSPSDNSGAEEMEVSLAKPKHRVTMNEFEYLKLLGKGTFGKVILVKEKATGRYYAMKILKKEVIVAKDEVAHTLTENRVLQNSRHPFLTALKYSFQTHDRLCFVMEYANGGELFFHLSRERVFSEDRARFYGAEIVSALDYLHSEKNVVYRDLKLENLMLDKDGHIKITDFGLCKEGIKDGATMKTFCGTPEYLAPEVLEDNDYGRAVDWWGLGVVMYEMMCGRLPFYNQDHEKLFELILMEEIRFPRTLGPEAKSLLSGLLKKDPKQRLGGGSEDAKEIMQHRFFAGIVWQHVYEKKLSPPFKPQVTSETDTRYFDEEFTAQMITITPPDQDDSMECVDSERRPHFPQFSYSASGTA
Protocol: Previous investigators developed cleavable PTD-cargo conjugates by engineering a disulfide linkage between the two domains (Stein, Weiss et al. 1999; Hallbrink, Floren et al. 2001). […] TAT(49-57)(SEQ ID NO:2) was conjugated via a disulfide bond to cysteines added to substrate peptides for CamKII (F-CamKII-C; SEQ ID NO:13) or PKB (F-PKB-C; SEQ ID NO:14), denoted F-CamKII-C-SS-TAT (SEQ ID NO:15) and F-PKB-C-SS-TAT (SEQ ID NO:16), respectively. The TAT(49-57)-Conjugated substrates were incubated with cells (HT1080 or HT1080/PTEN cells) and the contents of the cells were analyzed by the CACE. […]
(§1) CACE has been previously described (Sims, Meredith et al. 1998; Meredith, Sims et al. 2000; Li, Wu et al. 2001). Briefly, cells were placed on an inverted fluorescence microscope stage (Diaphot 300, Nikon, Japan) and maintained at 37° C. with an objective heater (Bioptechs; Butler, Pa.) prior to lysis unless stated otherwise. […] Cells were always maintained in ECB when analyzed by the CACE.
(§2) CE was performed as described (Sims, Meredith et al. 1998), with the following modifications. […] The loaded volume was calculated from Poiseulle's equation and from contributions by spontaneous fluid displacement and diffusion (Weinberger, 2000; Fishman, 1994; Crank, 1989). […] Analytes were detected by laser-induced fluorescence (Sims, Meredith et al. 1998). […]

PKB [2] = biological target: T1, PKB; test: CACE: intracellular phosphorylation of PKB substrate in HT1080 cells; assay type: cell-based; settings: cells with only two peaks
From the text: Since the properties of F-PKB (SEQ ID NO:17) microinjected into HT1080 cells have been well characterized, experiments were undertaken to compare the fate of F-PKB-C loaded as F-PKB-C-SS-TAT (SEQ ID NO:16) into HT1080 cells to that of the microinjected F-PKB (SEQ ID NO:17). When microinjected, the percentage of phosphorylated F-PKB depended on the relative, steady-state levels of both the kinases and phosphatases. This observation is shown in electrophoretic traces from cells loaded with F-PKB-C-SS-TAT (1 μM) (FIG. 6). A single asterisk denotes the migration time of F-PKB, and a double asterisk denotes the migration time of phosphorylated F-PKB from cells on the day of the experiment.
CACE has been previously described (Sims, Meredith et al. 1998; Meredith, Sims et al. 2000; Li, Wu et al. 2001). Briefly, cells were placed on an inverted fluorescence microscope stage (Diaphot 300, Nikon, Japan) and maintained at 37° C. with an objective heater (Bioptechs; Butler, Pa.) prior to lysis unless stated otherwise. The cells were continually washed with ECB maintained at 37° C. (unless otherwise indicated) with a flow rate of 1 ml/min and a total chamber volume of 0.5 ml. The inlet of a capillary (30 μm I.D., 360 μm O.D., 75 cm long) was positioned 10 μm above the cell. The inverted microscope was coupled to a pulsed Nd:YAG laser and a CE system (Sims, 1998). The CACE-based assay was performed as previously described (U, 2001; Meredith, 2000). Cells were always maintained in ECB when analyzed by the CACE.
CE was performed as described (Sims, Meredith et al. 1998), with the following modifications. The inner walls of the capillaries (30 μm I.D., 360 μm O.D.) were coated with poly(acrylate) (Wang, Hu et al. 2003). The outlet of the capillary was held at a negative potential of 18-21 kV, and the inlet reservoir was held at ground potential. Under these conditions, the current through the capillary was typically ˜36 μA. Solutions of standards were loaded into the capillary by gravitational fluid flow. The loaded volume was calculated from Poiseulle's equation and from contributions by spontaneous fluid displacement and diffusion (Weinberger, 2000; Fishman, 1994; Crank, 1989). To estimate the number of moles of peptide in an unknown solution or within a cell, the peak area from the electrophoretic trace of the solution or the cell was compared to that of a standard of known concentration separated by electrophoresis on the same day. A 1 pL cell volume and 100% peptide recovery was assumed in calculating intracellular peptide concentration (Meredith, Sims et al. 2000; Sims, Meredith et al. 1998). Analytes were detected by laser-induced fluorescence (Sims, Meredith et al. 1998).
Cells were incubated at room temperature for 5 minutes in 1% bovine serum albumin (BSA) in ECB, washed in ECB, and then incubated for 5 minutes at room temperature with a substrate conjugated to TAT(49-57). The cells were then washed with 1% BSA in ECB. Cells loaded with the disulfide conjugate were placed in supplement DMEM (10% FCS, 4 mM L-glutamine, 100 U/mL penicillin and 100 μg/mL streptomycin) and incubated at 37° C. in 5% CO2 for 20 minutes. Cells loaded with the photolabile conjugate were placed in supplemented DMEM and incubated at 37° C. in 5% CO2 for 10 minutes (unless stated otherwise) and were then illuminated with a UV light source for 10 seconds (a radiant energy/unit area of 2 kJ/m^2). The supplemented DMEM was exchanged and the cells were incubated another 10 minutes at 37° C. in 5% CO2. Just prior to analysis the cells were washed into ECB.

HT1080 cells = test: CACE single-cell analysis: loading and release of cargo; assay type: cell-based, human
PKB [3] = biological target: T2, PKB (Rattus norvegicus, UniProt P47196); test: CACE: intracellular phosphorylation of PKB substrate in RBL cells; assay type: cell-based; settings: 750 nM extracellular
T2 construct: endogenous in cells; host or cells: RBL-2H3 rat basophilic leukemia cells, with or without PIP3-histone
T2 sequence (P47196 whole entry): as the sequence (P31749 whole entry) above, with S2N, D46E, A50S, K112R, E117T, S137A, K389T, G410N, H415D counted along it
Protocol: To determine whether the F-PKB-C delivered to cells by addition of F-PKB-C-SS-TAT (SEQ ID NO:16) at a 750 nM extracellular concentration could also be phosphorylated after pharmacologic activation of PKB (rather than constitutively active PKB), PIP3-histone was added to RBL cells. […] The CACE was used to analyze the amount of phosphorylated F-PKB-C in the presence (15 μM) and absence of PIP3-histone added for 10 min to RBL cells loaded with F-PKB-C-SS-TAT (FIG. 6C,D).
as §1, with “otherwise. The cells were continually washed with ECB maintained at 37° C. (unless otherwise indicated) with a flow rate of 1 ml/min and a total chamber volume of 0.5 ml.” for “otherwise.”
as §2

recombinant CamKII = biological target: T3, recombinant CamKII (Rattus norvegicus, UniProt P11275); test: In vitro kinase assay, 32P phosphate incorporation; assay type: biochemical; settings: peptides 5-60 μM, 30° C., 30 minutes
T3 construct: purchased Calbiochem (San Diego, Calif.) / EMD Biosciences (San Diego, Calif.)
Protocol: In addition to assessing the electrophoretic behavior of F-CamKII-TAT, the ability of this conjugated sequence to act as an efficient substrate for the CamKII enzyme was characterized. The amount of phosphate incorporated into the substrate peptide alone and into F-CamKII-TAT by CamKII was measured in vitro. In the range of measured peptide concentrations, 90% less phosphate was incorporated by the CamKII enzyme into F-CamKII-TAT compared to the peptide lacking the TAT(49-57) sequence. The kinetic properties of CamKII enzyme for the CamKII peptide substrate were degraded when the peptide was conjugated to TAT(49-57).
Peptides (5-60 μM) were phosphorylated in vitro by 100 units of recombinant CamKII (EMD Biosciences; San Diego, Calif.) in 20 mM Tris-HCl, 10 mM MgCl2, 0.5 mM dithiothreitol (DTT), and 0.1 mM Ethylenediaminetetraacetic acid-(EDTA, pH 7.5) with […], 2 mM CaCl2 and […] [[…]-^32P]-ATP. The final specific activity of the [[…]-^32P]-ATP was 100 cpm/pmole; the total reaction volume was 25 μL. The mixture was incubated at 30° C. for 30 minutes. The reaction was stopped by adding 45 μL ice-cold 10% (v/v) trichloroacetic acid, mixed with a vortex, centrifuged, and blotted onto P81 phosphocellulose paper. Phosphate incorporation was quantified with a liquid scintillation counter (LS 3801; Beckman Instruments; Irvine, Calif.)

Jurkat cells = test: Michaelis-Menten kinetics of cellular uptake; assay type: cell-based, human; settings: 4° C. (on ice), Lineweaver-Burk plots, incubation 30-240 seconds
Protocol: When cellular uptake of polymers of D- and L-arginine were analyzed by Michaelis-Menten kinetics (see Example 6), the rate of uptake by Jurkat cells was so efficient that precise Km values could only be obtained when the assays were carried out at 4° C. (on ice). Both the maximal rate of transport (Vmax) and the apparent affinity of the peptides for the putative receptor of the Michaelis constant (Km) were derived from Lineweaver-Burk plots of the observed fluorescence of Jurkat cells after incubation with varying concentrations of nonamers of D- and L-arginine for 30, 60, 120, and 240 seconds.

cells = test: Confocal microscopy of conjugate uptake; assay type: cell-based; settings: same concentration for all conjugates
From the text: The ability of the D- and L-arginine polymers to enhance trans-membrane transport was confirmed by confocal microscopy (see FIGS. 6A-F and Example 4).

[4] = test system: F-CamKII-TAT (fluorescein-labeled CamKII substrate peptide conjugated to TAT(49-57) through a peptide bond)

## Gly Arg Pro Arg Ala Ala Thr Phe Ala Glu Gly Cys Arg Lys Lys Arg Arg Gln Arg Arg Arg (Fluorescein-GRPRAATFAEGCRKKRRQRRR-NH2; not fully specified; printed as Gly Arg Pro Arg Ala Ala Thr Phe Ala Glu Gly Cys Arg Lys Lys Arg Arg Gln Arg Arg Arg; also: disulfide linkage between the PKB-Cys part and the TAT part (partner not shown)) [F-PKB-C-SS-TAT, F-PKB-C conjugated to TAT(49-57) via a disulfide bond]
RBL cells
  detectable F-PKB-C per cell: 1.4e-20 ± 1e-21 mol
  intracellular concentration: ~14 nM
PKB [1]
  peak of phosphorylated F-PKB-C: no peak was present
PKB [2]
  peptide present as phosphorylated F-PKB-C: 75±8%
HT1080 cells; 215 nM extracellular
  average amount of detected F-PKB-C: 2.5e-19 ± 3e-20 mol
  cytosolic concentration of free F-PKB-C: ~250 nM
HT1080 cells; 1 μM extracellular
  detectable F-PKB-C per cell: 7e-19 ± 3e-20 mol
HT1080 cells; 1 μM extracellular, 1 pL cell volume assumed
  cytosolic concentration of free F-PKB-C: ~700 nM
PKB [3]; PIP3-histone 15 μM 10 min, n=4
  F-PKB-C phosphorylated: 39%±14%
PKB [3]; cells not exposed to PIP3-histone
  F-PKB-C phosphorylation: no phosphorylation

## Lys Lys Ala Leu His Arg Gln Glu Thr Val Asp Ala Leu Arg Lys Lys Arg Arg Gln Arg Arg Arg (KKALHRQETVDALRKKRRQRRR-NH2; not fully specified (N-terminus); printed as Lys Lys Ala Leu His Arg Gln Glu Thr Val Asp Ala Leu Arg Lys Lys Arg Arg Gln Arg Arg Arg; also: fluorescein label, position not given here) [F-CamKII-TAT, F-CamKII conjugated to TAT(49-57) through a peptide bond]
Recombinant CamKII
  less phosphate incorporated by CamKII compared to the peptide lacking the TAT(49-57) sequence: 90%

## RKKRRQRRR [TAT(49-57), basic region of HIV TAT protein, residues 49-57]
Jurkat cells
  Km: 722 µM
  Vmax: 0.38 µM/s
cells
  fluorescence of cytosol by confocal microscopy: only weak staining

## Recombinant calcium-calmodulin activated kinase II (CamKII)
[4]
  phosphate incorporated into the peptide by CamKII in vitro (32P-ATP kinase assay), compared to the substrate peptide lacking TAT(49-57): 90% less phosphate was incorporated by the CamKII enzyme into F-CamKII-TAT compared to the peptide lacking the TAT(49-57) sequence
